In assay [1] the target is nitrilotriacetate monooxygenase component B from Mycobacterium thermoresistibile (Mycobacterium thermoresistibile). Put plainly: SEC; Superdex 75 26/60 in 20 mM HEPES pH 7.0, 300 mM NaCl, 5% glycerol, 1 mM TCEP. Background: Size exclusion chromatography separates by hydrodynamic size, large species first.
Assay [2] shares this target. As to the kind of experiment: crystal structure; apo structure at 1.6 Å, space group P212121; two independent dimers in the asymmetric unit; crystals from 0.2 M magnesium chloride, 0.1 M MES pH 6.0, 20% PEG 6000 at 289 K.

In general, stoichiometry N refers to a count of units in the complex or per binding partner. In the case of “nitrilotriacetate monooxygenase component B from Mycobacterium thermoresistibile (enzyme)”, the stoichiometry N in assay [1] and in assay [2] was 2 in each case.

The values above are taken from PMC3169409.
